Measurements published in paper PMC3458569 (Nucleic Acids Research, 2012).
Residue numbers refer to the chain shown, from its start. Names may count otherwise. Each block holds one binder with its values, some of them ahead of it.

What was measured:
Bacillus subtilis UvrA = Bacillus subtilis UvrA (Bacillus subtilis, UniProt O34863 1-957); experiment: native gel or EMSA
crystal structure = biological target: the molecule itself; experiment: crystal structure
DEER = biological target: the molecule itself; experiment: DEER
cross-linking = biological target: the molecule itself; experiment: cross-linking
UvrB wild type = biological target: T1, UvrB wild type (Bacillus subtilis, UniProt P37954 1-661); experiment: X-ray crystallography
T1 sequence: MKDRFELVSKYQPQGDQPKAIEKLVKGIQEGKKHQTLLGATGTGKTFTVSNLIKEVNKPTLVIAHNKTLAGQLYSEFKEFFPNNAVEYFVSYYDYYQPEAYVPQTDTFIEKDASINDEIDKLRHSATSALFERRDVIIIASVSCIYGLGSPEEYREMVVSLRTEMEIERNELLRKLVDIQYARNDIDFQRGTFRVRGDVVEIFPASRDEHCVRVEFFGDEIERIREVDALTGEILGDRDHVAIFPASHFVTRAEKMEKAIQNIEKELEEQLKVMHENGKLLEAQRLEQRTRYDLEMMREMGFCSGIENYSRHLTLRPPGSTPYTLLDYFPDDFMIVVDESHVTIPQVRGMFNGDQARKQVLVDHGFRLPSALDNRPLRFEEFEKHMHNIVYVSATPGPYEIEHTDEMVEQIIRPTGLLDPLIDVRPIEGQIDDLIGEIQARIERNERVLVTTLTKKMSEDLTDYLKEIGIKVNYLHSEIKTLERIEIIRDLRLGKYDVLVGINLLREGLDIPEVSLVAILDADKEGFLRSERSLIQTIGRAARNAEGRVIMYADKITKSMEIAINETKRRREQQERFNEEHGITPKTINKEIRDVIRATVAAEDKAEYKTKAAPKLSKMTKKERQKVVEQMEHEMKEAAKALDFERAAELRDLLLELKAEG

Bacillus subtilis UvrA, sequence (O34863 whole entry): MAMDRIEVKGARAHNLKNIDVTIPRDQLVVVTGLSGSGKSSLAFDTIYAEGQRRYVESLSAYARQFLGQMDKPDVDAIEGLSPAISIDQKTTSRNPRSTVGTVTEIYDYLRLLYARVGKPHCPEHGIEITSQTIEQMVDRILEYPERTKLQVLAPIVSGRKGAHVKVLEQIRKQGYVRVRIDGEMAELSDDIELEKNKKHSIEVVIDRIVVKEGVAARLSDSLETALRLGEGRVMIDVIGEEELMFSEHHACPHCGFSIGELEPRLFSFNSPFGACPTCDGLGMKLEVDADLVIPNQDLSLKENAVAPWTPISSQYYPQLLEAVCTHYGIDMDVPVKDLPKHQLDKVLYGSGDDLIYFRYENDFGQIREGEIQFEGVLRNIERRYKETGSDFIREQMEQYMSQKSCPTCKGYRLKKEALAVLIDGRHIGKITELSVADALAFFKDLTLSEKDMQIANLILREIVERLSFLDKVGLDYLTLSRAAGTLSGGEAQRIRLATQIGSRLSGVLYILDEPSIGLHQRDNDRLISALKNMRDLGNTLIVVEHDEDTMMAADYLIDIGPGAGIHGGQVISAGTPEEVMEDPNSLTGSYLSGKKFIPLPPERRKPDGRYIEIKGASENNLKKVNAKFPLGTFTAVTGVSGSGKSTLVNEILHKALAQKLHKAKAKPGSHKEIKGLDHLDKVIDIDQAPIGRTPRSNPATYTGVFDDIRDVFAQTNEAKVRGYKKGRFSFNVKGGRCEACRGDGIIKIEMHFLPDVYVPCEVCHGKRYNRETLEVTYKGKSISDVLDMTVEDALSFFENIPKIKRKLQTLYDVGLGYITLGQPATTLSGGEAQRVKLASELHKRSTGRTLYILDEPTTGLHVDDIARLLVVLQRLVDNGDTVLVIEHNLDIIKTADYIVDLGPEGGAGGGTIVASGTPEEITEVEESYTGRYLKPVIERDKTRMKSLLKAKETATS

binding result (Bacillus subtilis UvrA): binds
B1: Bacillus subtilis UvrB (wild type) (natural protein)
chain: T1 sequence
stoichiometry N (crystal structure): 2

B2: Bacillus subtilis UvrB T481C mutant, spin labeled with PROXYL (natural protein)
chain: T1 sequence with T481C
modifications: nitroxide spin label 3-(2-iodoacetamido)-proxyl (PROXYL) on C481
binding result (DEER): binds

B3: Bacillus subtilis UvrB T481C mutant (natural protein)
chain: T1 sequence with T481C
binding result (cross-linking): binds

Binder: TACTGTTT (ssDNA, T-fluorescein at position 6) [TACTG(TF6)TT 8-mer]
binding result (UvrB wild type): binds
